From patent US20200407449A1 (PHARMABCINE, published 2020)

T1: hVISTA-Fc (R&D systems. Cat. No. 7126-B7) (human, UniProt Q9H7M9 33-194)
T1 construct: Bought antigen; also called human VISTA-Fc; VISTA-FC Human
T1 sequence: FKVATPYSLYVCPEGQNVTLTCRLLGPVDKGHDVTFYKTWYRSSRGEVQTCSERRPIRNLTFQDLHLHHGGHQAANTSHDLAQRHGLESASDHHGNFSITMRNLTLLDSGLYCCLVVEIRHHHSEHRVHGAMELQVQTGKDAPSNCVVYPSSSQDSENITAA


Molecular target: T1, hVISTA-Fc (R&D systems. Cat. No. …)
Assay: Octet (BLI), antibody immobilised on biosensor, antigen in solution
Procedure: (§1) The binding ability of the screened antibody to the antigen was measured using an Octet (ForteBio). For this purpose, the antibody was immobilized on a biosensor, various concentrations of antigen were added to a 96-well plate, and then the binding ability was measured.

| Binder | Kd [nM] | koff [s⁻¹] | kon [M⁻¹ s⁻¹] |
| --- | --- | --- | --- |
| anti-VISTA antibody 1B8 (IgG form) (antibody, V domains shown, also called Anti VISTA 3.0(1B8); anti-VISTA mAb 1B8) VH: QMQLVQSGAEVKKPGSSVKVSCKASGGSSSNYAISWVRQAPGQGLEWMGGIIPIFGTTSYAQKFQGRVTITADGSMSTAYMELSSLRSEDTAVYYCAKGAIEPWPFYFDNWGQGTLVTVSS VL: QLVLTQPRSVSGSPGQSVTISCTGTNSDVGAYNYLSWYQQLPGRAPKVIIYDVNKRPSGVPDRFSGSRSGKTASLTISGLQAEDEADYYCAAWDDSLNGLVFGGGTKLTVLG | 9.29 | 0.00103 | 111000 |
| anti-VISTA antibody 2B7 (IgG form) (antibody, V domains shown) VH: QVQLVQSGGGLVKPGGSLRLSCAASGFTFSGSAMHWVRQASGKGLEWVGRIRSKANSYATAYAASVKGRFTISRDDSKNTAYLQMNSLKTEDTAVYYCSRVNSGYYGPDYWGKGTLVTVSS VL: not shown | 5.8 | 0.000142 | 24500 |

Molecular target: T1, hVISTA-Fc (R&D systems. Cat. No. …)
Assay: monoclonal scFv phage ELISA, plate coated with 1 ug/ml VISTA-Fc, anti-M13-HRP
Procedure: After the panning process was completed, the final round cell stock was diluted to form 200 to 500 colonies, spread on a CM agar plate, and then incubated overnight at 37° C. The next day, when the colonies grew, 200 μl of 2xYT medium (CM 34 μg/ml+1% glucose) was plated onto a 96-well deep plate, the colony was inserted into each well one by one and the plate was then incubated overnight at 37° C. and 3,000 rpm. The next day, 200 μl of 2×YT medium (CM 34 μg/ml+1% glucose) was plated onto a new 96-well dip plate, and […] of cells grown the day before were injected into each well and grown at 37° C. and 3,000 rpm for 1 hour and 10 minutes. The remaining cells were stored at −70° C. in 100 pμl of 50% glycerol. When the cells grew, 1 μl of a helper phage was mixed with 19 μl of 2×YT medium, and 20 μl of the resulting mixture was injected into each well and incubated for 30 minutes at 37° C. After incubation, centrifugation was performed at 3,000 rpm for 10 minutes. The supernatant was discarded and 200 μl of 2×YT medium (CM 34 μg/ml+Kan. 70 μg/ml+1 mM IPTG+5 mM MgCl₂) was added to the residue, followed by incubation in MegaGrow at 30° C. and 3,000 rpm overnight.
1 μg/ml of Ag (hVISTA-Fc, mVISTA-Fc) was plated at 100 μl/well onto a 96-well immunoplate and then incubated overnight at 4° C. The next day, the cells grown the day before were centrifuged at 3,000 rpm for 10 minutes and stored at 4° C. The plated Ag was washed 3 times with 0.05% PBST, and then 200 μl of 2% BSA blocking buffer was added thereto, followed by incubation at 25° C. for 2 hours. After blocking was completed, the result was washed 3 times with 0.05% PBST. […] After phage binding was completed, the reaction product was washed three times with 0.05% PBST, 100 μl of HRP-conjugated mouse anti-M13 antibody (1:3000, #GE 27-9421-01) was added thereto, and reaction was allowed to proceed at 25° C. for 1 hour. After the reaction was completed, the resulting product was washed 3 times with 0.05% PBST, 100 μl of TMB (#BD TMB substrate reagent set 555214) was added thereto, color was developed for 3 to 5 minutes, 50 μl of a stop solution was added thereto, and then an assay was performed using an ELISA reader.

| Binder | OD [OD] |
| --- | --- |
| 1A12 monoclonal scFv phage (scFv, V domains shown) VH: QMQLVESGGGLVEPGRSLRLSCTTSGFSFHDYTMYWVRQVPGKGLEWVSLISWDGTITFYADPVRGRFTISRDNSKNSLYLQMNSLRAEDTAVYYCAKEDRYDYYSGAFDIWGQGTVVTVSS VL: QSALTQPRSVSGSPGQSVTISCTGTSSDVGGYDYVSWYQQHPGKAPKLILNDVNKRPSGVPDRFSGSKSGNTASLTISGLQPDDEADYYCSSFAGSNTLRVFGGGTKLTVLG | 1.88 |

Molecular target: T1, hVISTA-Fc (R&D systems. Cat. No. …)
Assay: dissociation rate constant of scFv in the screening of optimised clones; antigen not named

| Binder | koff [s⁻¹] |
| --- | --- |
| Anti VISTA_V3_3 (scFv phage clone) (scFv, V domains shown, Optimised 1B8 variant that retains the 1B8 heavy-chain variable region, measured as scFv) VH: QMQLVQSGAEVKKPGSSVKVSCKASGGSSSNYAISWVRQAPGQGLEWMGGIIPIFGTTSYAQKFQGRVTITADGSMSTAYMELSSLRSEDTAVYYCAKGAIEPWPFYFDNWGQGTLVTVSS VL: QLVLTQPRSVSGSPGQSVTISCTGTNSDVGAYNYLSWYQQLPGRAPKVIIYDVNKRPSGVPDRFSGSRSGKTASLTISGLQAEDEADYYCAAWDDSLNVLVFGGGTKLTVLG | 0.00127 |
| Anti VISTA_V3_1 (scFv phage clone) (scFv, V domains shown, Optimised 1B8 variant that retains the 1B8 heavy-chain variable region, measured as scFv) VH: QMQLVQSGAEVKKPGSSVKVSCKASGGSSSNYAISWVRQAPGQGLEWMGGIIPIFGTTSYAQKFQGRVTITADGSMSTAYMELSSLRSEDTAVYYCAKGAIEPWPFYFDNWGQGTLVTVSS VL: QLVLTQPRSVSGSPGQSVTISCTGTNSDVGAYNYLSWYQQLPGRAPKVIIYDVNKRPSGVPDRFSGSRSGKTASLTISGLQAEDEADYYCAAWDDSLYGLVFGGGTKLTVLG | 0.000487 |
| Anti VISTA_V3_2 (scFv phage clone) (scFv, V domains shown, Optimised 1B8 variant that retains the 1B8 heavy-chain variable region, measured as scFv) VH: QMQLVQSGAEVKKPGSSVKVSCKASGGSSSNYAISWVRQAPGQGLEWMGGIIPIFGTTSYAQKFQGRVTITADGSMSTAYMELSSLRSEDTAVYYCAKGAIEPWPFYFDNWGQGTLVTVSS VL: QLVLTQPRSVSGSPGQSVTISCTGTNSDVGAYNYLSWYQQLPGRAPKVIIYDVNKRPSGVPDRFSGSRSGKTASLTISGLQAEDEADYYCAAWDDSLNDLVFGGGTKLTVLG | 0.00108 |
| Anti VISTA_H2 (scFv phage clone) (scFv, V domains shown, Optimised 1B8 variant that retains the 1B8 heavy-chain variable region, measured as scFv) VH: QMQLVQSGAEVKKPGSSVKVSCKASGGSSSNYAISWVRQAPGQGLEWMGGIIPIFGTTSYAQKFQGRVTITADGSMSTAYMELSSLRSEDTAVYYCAKGAIEPWPFYFDNWGQGTLVTVSS VL: QLVLTQPRSVSGSPGQSVTISCTGTNSDVGAYNYLSWYQQLPGRAPKVIIYDVNKRPSGVPDRFSGSRSGKTASLTISGLQAEDEADYYCAAWDDNLNGLVFGGGTKLTVLG | 0.000285 |
| Anti VISTA_B5 (scFv phage clone) (scFv, V domains shown, Optimised 1B8 light-chain CDR3 variant, measured as scFv) VH: QMQLVQSGAEVKKPGSSVKVSCKASGGSSSNYAISWVRQAPGQGLEWMGGIIPIFGTTSYAQKFQGRVTITADGSMSTAYMELSSLRSEDTAVYYCAKGAIEPWPFYFDNWGQGTLVTVSS VL: QLVLTQPRSVSGSPGQSVTISCTGTNSDVGAYNYLSWYQQLPGRAPKVIIYDVNKRPSGVPDRFSGSRSGKTASLTISGLQAEDEADYYCAAWDDDLNGLVFGGGTKLTVLG | 0.000616 |
| Anti VISTA_V3_4 (scFv phage clone) (scFv, V domains shown, Optimised 1B8 variant that retains the 1B8 heavy-chain variable region, measured as scFv) VH: QMQLVQSGAEVKKPGSSVKVSCKASGGSSSNYAISWVRQAPGQGLEWMGGIIPIFGTTSYAQKFQGRVTITADGSMSTAYMELSSLRSEDTAVYYCAKGAIEPWPFYFDNWGQGTLVTVSS VL: QLVLTQPRSVSGSPGQSVTISCTGTNSDVGAYNYLSWYQQLPGRAPKVIIYDVNKRPSGVPDRFSGSRSGKTASLTISGLQAEDEADYYCAAWDDNSDFHVFGGGTKLTVLG | 0.00222 |
| Anti VISTA_G1 (scFv phage clone) (scFv, V domains shown, Optimised 1B8 variant that retains the 1B8 heavy-chain variable region, measured as scFv) VH: QMQLVQSGAEVKKPGSSVKVSCKASGGSSSNYAISWVRQAPGQGLEWMGGIIPIFGTTSYAQKFQGRVTITADGSMSTAYMELSSLRSEDTAVYYCAKGAIEPWPFYFDNWGQGTLVTVSS VL: QLVLTQPRSVSGSPGQSVTISCTGTNSDVGAYNYLSWYQQLPGRAPKVIIYDVNKRPSGVPDRFSGSRSGKTASLTISGLQAEDEADYYCAAWDDSLIGHVFGGGTKLTVLG | 0.000574 |

Molecular target: T1, hVISTA-Fc (R&D systems. Cat. No. …)
Assay: Octet (BLI), antibody as ligand on biosensor, VISTA-Fc as analyte
Procedure: as §1
Octet was used to evaluate the binding strength of the optimized anti-VISTA antibody while excluding clones with low productivity therefrom, and the experiment was performed in the same manner as the method presented in Example 6 (Table 11).

| Binder | Kd [nM] | koff [s⁻¹] | kon [M⁻¹ s⁻¹] |
| --- | --- | --- | --- |
| anti-VISTA antibody 1B8 (IgG form) (antibody, V domains shown, also called Anti VISTA 3.0(1B8); anti-VISTA mAb 1B8) VH: QMQLVQSGAEVKKPGSSVKVSCKASGGSSSNYAISWVRQAPGQGLEWMGGIIPIFGTTSYAQKFQGRVTITADGSMSTAYMELSSLRSEDTAVYYCAKGAIEPWPFYFDNWGQGTLVTVSS VL: QLVLTQPRSVSGSPGQSVTISCTGTNSDVGAYNYLSWYQQLPGRAPKVIIYDVNKRPSGVPDRFSGSRSGKTASLTISGLQAEDEADYYCAAWDDSLNGLVFGGGTKLTVLG | 13.6 | 0.00209 | 154000 |
| PMC-309.3.4SA (antibody, V domains shown, light chain SA; also called PMC-309.3.45A) VH: QVQLVQSGAEVKKPGSSVKVSCKASGGSSSNYAISWVRQAPGQGLEWMGGIIPIFGTTSYAQKFQGRVTITADKSTSTAYMELSSLRSEDTAVYYCAKGAIEPWPFYFDNWGQGTLVTVSS VL: QSALTQPRSVSGSPGQSVTISCTGTNSDVGAYNYLSWYQQLPGRAPKVIIYDVNKRPSGVPDRFSGSRSGKTASLTISGLQAEDEADYYCAAWDDNLYGLVFGGGTKLTVL | 0.606 | 0.000134 | 225000 |
| PMC-309.3.4w (antibody, V domains shown, Heavy chain G-H (framework substituted), wt light chain) VH: QVQLVQSGAEVKKPGSSVKVSCKASGGSSSNYAISWVRQAPGQGLEWMGGIIPIFGTTSYAQKFQGRVTITADKSTSTAYMELSSLRSEDTAVYYCAKGAIEPWPFYFDNWGQGTLVTVSS VL: QLVLTQPRSVSGSPGQSVTISCTGTNSDVGAYNYLSWYQQLPGRAPKVIIYDVNKRPSGVPDRFSGSRSGKTASLTISGLQAEDEADYYCAAWDDNLYGLVFGGGTKLTVLG | 0.496 | 9.38e-05 | 189000 |
| PMC-309.3.3 (antibody, V domains shown) VH: QMQLVQSGAEVKKPGSSVKVSCKASGGSSSNYAISWVRQAPGQGLEWMGGIIPIFGTTSYAQKFQGRVTITADGSMSTAYMELSSLRSEDTAVYYCAKGAIEPWPFYFDNWGQGTLVTVSS VL: QLVLTQPRSVSGSPGQSVTISCTGTNSDVGAYNYLSWYQQLPGRAPKVIIYDVNKRPSGVPDRFSGSRSGKTASLTISGLQAEDEADYYCAAWDDNLYGLVFGGGTKLTVLG | 0.516 | 9.56e-05 | 185000 |
| Anti VISTA_V3_1 (IgG form) (antibody, V domains shown) VH: QMQLVQSGAEVKKPGSSVKVSCKASGGSSSNYAISWVRQAPGQGLEWMGGIIPIFGTTSYAQKFQGRVTITADGSMSTAYMELSSLRSEDTAVYYCAKGAIEPWPFYFDNWGQGTLVTVSS VL: QLVLTQPRSVSGSPGQSVTISCTGTNSDVGAYNYLSWYQQLPGRAPKVIIYDVNKRPSGVPDRFSGSRSGKTASLTISGLQAEDEADYYCAAWDDSLYGLVFGGGTKLTVLG | 2.86 | 0.00015 | 52500 |
| Anti VISTA_V3_2 (IgG form) (antibody, V domains shown) VH: QMQLVQSGAEVKKPGSSVKVSCKASGGSSSNYAISWVRQAPGQGLEWMGGIIPIFGTTSYAQKFQGRVTITADGSMSTAYMELSSLRSEDTAVYYCAKGAIEPWPFYFDNWGQGTLVTVSS VL: QLVLTQPRSVSGSPGQSVTISCTGTNSDVGAYNYLSWYQQLPGRAPKVIIYDVNKRPSGVPDRFSGSRSGKTASLTISGLQAEDEADYYCAAWDDSLNDLVFGGGTKLTVLG | 12.8 | 0.00191 | 149000 |
